Experiments:
[1] = biological target: Nicotinamide Nucleotide Transhydrogenase (NNT), endogenous, mouse kidney (mouse) (UniProt Q61941); experiment: anti-HA immunoprecipitation from DTSSP-crosslinked crude mitochondria, LC-MS/MS proteomics, n=3 per group
[2] = biological target: Ganab (glucosidase II alpha-subunit), endogenous, mouse kidney (mouse) (UniProt Q8BHN3); experiment: anti-HA immunoprecipitation from DTSSP-crosslinked crude mitochondria (contain MAMs), LC-MS/MS proteomics
Chain of Ganab (glucosidase II alpha-subunit), endogenous, mouse kidney (mouse) (Q8BHN3 33-944 limits assumed): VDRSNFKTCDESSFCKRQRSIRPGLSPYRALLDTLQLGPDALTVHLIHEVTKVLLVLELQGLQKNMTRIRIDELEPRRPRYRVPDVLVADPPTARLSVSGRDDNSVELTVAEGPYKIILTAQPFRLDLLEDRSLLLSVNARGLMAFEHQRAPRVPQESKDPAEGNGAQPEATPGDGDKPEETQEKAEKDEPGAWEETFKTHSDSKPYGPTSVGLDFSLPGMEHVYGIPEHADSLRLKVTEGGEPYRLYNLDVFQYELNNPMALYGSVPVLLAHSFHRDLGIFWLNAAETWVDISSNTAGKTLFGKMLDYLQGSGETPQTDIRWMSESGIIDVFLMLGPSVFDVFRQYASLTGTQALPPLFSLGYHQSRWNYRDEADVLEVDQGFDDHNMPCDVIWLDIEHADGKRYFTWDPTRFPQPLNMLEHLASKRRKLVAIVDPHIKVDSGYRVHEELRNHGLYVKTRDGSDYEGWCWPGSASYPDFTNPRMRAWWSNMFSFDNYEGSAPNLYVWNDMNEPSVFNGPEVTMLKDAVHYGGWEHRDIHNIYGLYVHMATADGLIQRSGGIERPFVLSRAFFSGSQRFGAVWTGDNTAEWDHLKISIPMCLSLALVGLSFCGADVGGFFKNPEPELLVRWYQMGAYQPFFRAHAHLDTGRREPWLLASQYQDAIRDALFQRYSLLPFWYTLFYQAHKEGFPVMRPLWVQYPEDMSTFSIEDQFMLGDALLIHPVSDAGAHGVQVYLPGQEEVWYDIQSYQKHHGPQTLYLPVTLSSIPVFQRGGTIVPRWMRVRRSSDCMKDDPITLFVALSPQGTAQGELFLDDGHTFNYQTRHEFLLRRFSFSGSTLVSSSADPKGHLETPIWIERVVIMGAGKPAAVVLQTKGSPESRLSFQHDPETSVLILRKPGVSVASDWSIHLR

Chain of 3FLAG-PC1-3HA (PC1 tagged with a 3xFLAG epitope at its N-terminus and a 3xHA sequence at its C-terminus, Pkd1F/H-BAC mouse) and its HA-tagged fragments (150-kDa CTF; PC1-CTT-3HA fragments of 17-37 kDa (O08852 3041-4293): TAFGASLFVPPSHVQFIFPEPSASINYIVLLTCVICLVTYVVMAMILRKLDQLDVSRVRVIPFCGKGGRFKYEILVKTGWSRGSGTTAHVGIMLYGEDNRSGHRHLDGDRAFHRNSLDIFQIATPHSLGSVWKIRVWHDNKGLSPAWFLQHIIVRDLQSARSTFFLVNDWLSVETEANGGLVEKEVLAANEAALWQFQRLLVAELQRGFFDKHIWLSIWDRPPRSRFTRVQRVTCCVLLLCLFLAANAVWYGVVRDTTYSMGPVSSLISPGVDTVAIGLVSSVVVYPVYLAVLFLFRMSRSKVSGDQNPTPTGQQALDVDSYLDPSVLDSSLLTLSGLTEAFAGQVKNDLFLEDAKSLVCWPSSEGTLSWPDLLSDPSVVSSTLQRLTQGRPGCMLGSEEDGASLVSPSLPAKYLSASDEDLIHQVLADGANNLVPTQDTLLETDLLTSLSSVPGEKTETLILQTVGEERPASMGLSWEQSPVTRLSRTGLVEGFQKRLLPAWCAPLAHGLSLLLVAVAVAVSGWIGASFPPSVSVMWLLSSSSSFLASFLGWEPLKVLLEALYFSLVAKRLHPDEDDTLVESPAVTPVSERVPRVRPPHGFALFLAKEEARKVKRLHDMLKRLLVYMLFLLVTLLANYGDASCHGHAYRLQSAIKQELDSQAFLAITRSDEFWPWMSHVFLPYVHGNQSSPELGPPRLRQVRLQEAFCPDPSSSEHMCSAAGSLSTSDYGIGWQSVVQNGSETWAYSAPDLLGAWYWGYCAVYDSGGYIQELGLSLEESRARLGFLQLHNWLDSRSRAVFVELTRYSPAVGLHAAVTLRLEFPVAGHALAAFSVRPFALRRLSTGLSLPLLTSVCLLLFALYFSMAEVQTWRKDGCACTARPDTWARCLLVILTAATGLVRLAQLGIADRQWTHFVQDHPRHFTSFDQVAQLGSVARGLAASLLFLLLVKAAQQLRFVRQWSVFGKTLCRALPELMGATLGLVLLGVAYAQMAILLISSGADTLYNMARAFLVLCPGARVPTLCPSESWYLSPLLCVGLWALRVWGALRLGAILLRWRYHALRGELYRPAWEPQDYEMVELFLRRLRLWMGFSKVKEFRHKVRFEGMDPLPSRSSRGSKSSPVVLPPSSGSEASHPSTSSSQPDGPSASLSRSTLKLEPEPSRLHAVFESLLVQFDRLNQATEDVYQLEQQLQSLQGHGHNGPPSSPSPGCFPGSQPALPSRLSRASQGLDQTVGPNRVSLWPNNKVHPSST
Chain of Nicotinamide Nucleotide Transhydrogenase (NNT), endogenous, mouse kidney (mouse) (Q61941 44-1086 limits assumed): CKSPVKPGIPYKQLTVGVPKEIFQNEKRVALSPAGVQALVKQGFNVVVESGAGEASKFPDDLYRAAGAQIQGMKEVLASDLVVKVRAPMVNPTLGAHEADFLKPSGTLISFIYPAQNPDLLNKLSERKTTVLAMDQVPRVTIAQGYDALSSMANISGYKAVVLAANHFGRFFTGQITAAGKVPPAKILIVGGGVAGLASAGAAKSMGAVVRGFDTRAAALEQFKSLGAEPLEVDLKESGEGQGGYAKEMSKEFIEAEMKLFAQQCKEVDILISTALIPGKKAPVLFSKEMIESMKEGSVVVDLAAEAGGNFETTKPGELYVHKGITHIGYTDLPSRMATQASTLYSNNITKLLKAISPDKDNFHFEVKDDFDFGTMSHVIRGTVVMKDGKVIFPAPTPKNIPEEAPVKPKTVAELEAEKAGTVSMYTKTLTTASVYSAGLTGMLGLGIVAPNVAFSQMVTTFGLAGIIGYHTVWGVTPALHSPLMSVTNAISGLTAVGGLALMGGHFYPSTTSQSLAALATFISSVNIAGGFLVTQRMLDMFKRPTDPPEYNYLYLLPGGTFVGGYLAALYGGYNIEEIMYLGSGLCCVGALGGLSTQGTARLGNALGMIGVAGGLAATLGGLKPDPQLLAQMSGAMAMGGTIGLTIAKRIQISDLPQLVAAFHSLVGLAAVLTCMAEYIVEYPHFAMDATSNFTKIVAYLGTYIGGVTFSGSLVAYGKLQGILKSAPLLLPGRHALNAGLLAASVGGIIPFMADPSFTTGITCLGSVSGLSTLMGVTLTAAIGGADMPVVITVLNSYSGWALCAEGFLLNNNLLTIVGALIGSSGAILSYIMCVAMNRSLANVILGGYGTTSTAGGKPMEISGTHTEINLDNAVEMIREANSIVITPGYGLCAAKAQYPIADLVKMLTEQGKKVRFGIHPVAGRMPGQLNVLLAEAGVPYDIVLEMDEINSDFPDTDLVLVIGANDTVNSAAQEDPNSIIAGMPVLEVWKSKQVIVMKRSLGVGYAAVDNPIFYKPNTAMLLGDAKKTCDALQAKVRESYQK

fold amount of NNT co-immunoprecipitated against control WT immunoprecipitates [1]: > 16 fold
fold enrichment in immunoprecipitates against WT [2]: 4 fold
Substance: 3FLAG-PC1-3HA (PC1 tagged with a 3xFLAG epitope at its N-terminus and a 3xHA sequence at its C-terminus, Pkd1F/H-BAC mouse) and its HA-tagged fragments (150-kDa CTF; PC1-CTT-3HA fragments of 17-37 kDa) (from UniProt O08852 3041-4293)
